Test results taken from patent US20030087827A1.

Target: proprotein convertase PC2
Assay: enzyme inhibition, pERTKR-MCA hydrolysis (fluorescence), competitive Ki

Chain of proprotein convertase PC2 (P21661 109-637): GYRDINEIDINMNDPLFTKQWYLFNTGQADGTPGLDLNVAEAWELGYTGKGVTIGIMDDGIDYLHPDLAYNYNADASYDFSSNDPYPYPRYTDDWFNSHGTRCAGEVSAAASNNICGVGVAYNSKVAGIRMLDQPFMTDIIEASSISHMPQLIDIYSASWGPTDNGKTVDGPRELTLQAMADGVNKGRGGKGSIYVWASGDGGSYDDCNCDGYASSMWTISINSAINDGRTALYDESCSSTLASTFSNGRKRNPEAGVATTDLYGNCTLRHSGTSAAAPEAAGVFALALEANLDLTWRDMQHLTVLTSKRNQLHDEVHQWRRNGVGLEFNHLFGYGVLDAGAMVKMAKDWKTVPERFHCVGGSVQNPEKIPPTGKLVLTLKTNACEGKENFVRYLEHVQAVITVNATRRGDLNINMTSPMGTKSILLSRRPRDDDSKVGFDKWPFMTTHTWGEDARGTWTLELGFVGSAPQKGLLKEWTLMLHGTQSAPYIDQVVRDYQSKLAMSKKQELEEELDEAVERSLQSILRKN

Ki: 1500 µM
Substance: Ac-MRKRRR-NH2 (peptide)
